Laboratory results reported in patent US20190233498A1 (H LUNDBECK A S, published 2019).
Where a chain is given by its changes, count along the chain named.

T1: human PACAP38 (human, not fully specified; C-terminal lysine is amidated; N-terminal or C-terminal biotin in the HTRF and PC-12 cell binding assays)
T1 construct: synthetic peptide, bought; also called huPACAP (1-38)
T1 peptide: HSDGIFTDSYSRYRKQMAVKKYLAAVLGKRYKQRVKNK

T2: human PACAP27 (human, C-terminal leucine is amidated; 125I-labelled in Example 10)
T2 peptide: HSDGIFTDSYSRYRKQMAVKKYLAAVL

T3: human VIP (human)
T3 construct: also called Vasoactive Intestinal Peptide
T3 peptide: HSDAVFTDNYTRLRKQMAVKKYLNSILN

B1: anti-PACAP antibody Ab15 (antibody, human IgG1, kappa, N297A, V domains shown)
VH: QSVEASGGHLVTPGTPLTLTCTVSGFSLSSAAMNWVRQAPGKGLEWIGSVDERQNKYYASWAKGRFTISRTSSTTVNLKMTSPTTEDTATYFCARGGGEFFIWGQGTLVTVSS
VL: AQVLTQTPSSVSAAVGGTVTINCQSSQSVYSNNRLSWYQQKPGQPPNLLIYEASSLASGVPSRFSGSGSGTQFTLTISDLECDDAATYYCAGAYNTGIYGFGGGTEVVVKR
notes: full-length rabbit/human chimeric antibody
B2: anti-PACAP antibody Ab19 (antibody, human IgG1, kappa, N297A, V domains shown)
VH: QSVEASGGRLVTPGTPLTLTCTVSGFSLSSATMNWVRQAPGKGLEWIGLIGGNDERYYASWAKGRFTISKTSSTTVDLKMTSPTTEDTATYFCARGGGEFFIWGPGTLVTVSS
VL: B1 VL with Q27E, S31T, N33D, N47K, S55K, S62P, N95S, G97S, Y99H
notes: as for B1
B3: anti-PACAP antibody Ab5 (antibody, human IgG1, kappa, N297A, V domains shown)
VH: QSVEESGGRLVTPGTPLTLTCTVSGFSLSSYAMIWVRQAPGKGLEWIGIIYDNGDTYYASWAKGRFTISKTSTTVYLKIASPTTEDTATYFCAREPGSTTQNDLWGQGTLVTVSS
VL: DVVMTQTPASVSEPVGGTVTIKCQASENIYNSLLWYQQKPGQPPKLLIYRASTLASGVSSRFKGSGSGTEFTLTISDLECADAATYYCQNYYNIWTNGAAFGGGTEVVVKR
notes: as for B1
B4: anti-PACAP antibody Ab4 (antibody, human IgG1, kappa, N297A, V domains shown)
VH: QSVEESGGRLVTPGTPLTLTCTVSGFSLSSYDMSWVRQAPGKGLEYIGIINTNDDTWYASWVKGRFTISKTSSTTVDLKMTSLTTEDTATYFCARISDAYVFDYAYYFTLWGQGTLVTVSS
VL: ALVMTQTPSSVSAAVGGTVTINCLASQNIYNSLAWYQQKPGQPPKLLIYRASTLASGVSSRFKGSGSGTQFTLTISGVECADAATYYCQQGAGADNIGNPFGGGTEVVVKR
notes: as for B1
B5: anti-PACAP antibody Ab16 (antibody, human IgG1, kappa, N297A, V domains shown)
VH: QSVEESGGRLVTPGTPLTLTCTVSGFSLSSAAMSWVRQAPGKGLEWIGIIDDSGNTYYASWAKARFTISKTSSTTVDLKMTSPTTEDTATYFCARGGGEFFIWGPGTLVTVSS
VL: DPVLTQTPSSVSAAVGGTVTINCQSSQSVYNNKWLSWYQQKPGQSPKFLIYQASNLASGVPSRFKGSGSGTQFTLTISDLECDDGATYYCAGGYRGNVCGFGGGTEVVVKR
notes: as for B1
B6: anti-PACAP antibody Ab17 (antibody, human IgG1, kappa, N297A, V domains shown)
VH: B5 VH with S34N, I50F, D52P, S53Y, G54S, N55S, A64G
VL: AQVLTQTPSSVSAAVGGTVTINCQSSQSVYKNKYLSWYQQKVGQPPKFLIYQASNLASGVPSRFKGSGSGTQFTLTISDLECDDAATYYCAGGYSGNMVDFGGGTEVVVKR
notes: as for B1
B7: anti-PACAP antibody Ab18 (antibody, human IgG1, kappa, N297A, V domains shown)
VH: B5 VH with M33L, D52K, S53G, G54V, N55M, T56S, A64G, M80V, P105Q
VL: B6 VL with Q27K, K31N, K33N, Y34W, V42P, M98I, D100G
notes: as for B1

How the values were obtained:
human PACAP38 [1] = target: T1, human PACAP38; assay: inhibition of 100 nM biotin-PACAP38 binding to PC-12 cells, TRF
Method: To identify antibodies that block PACAP38 binding to PAC1-R-expressing cells, adherent PC-12 cells (ATCC, Manassas, Va.) expressing PAC1-R were used in a Europium-based PAC1-R expressing cells binding assay.
Antibody solutions were incubated with N-terminal biotinylated PACAP38 at 10× the final concentration (100 nM or 30 nM) for 1 hr, then added to PC-12 cells that were plated 24 hrs. prior in black clear bottom 96 well plates (COSTAR™, Corning Incorporated, Corning, N.Y.) and further incubated for 1 hr at room temperature. After three washes, the cells were incubated with 20 μl Europium-labeled streptavidin (PerkinElmer, Waltham, Mass.) for 1 hr at room temperature. Cells were washed three times, then 20 μl DELFIA® Enhancement solution (PerkinElmer, Waltham, Mass.) was added to each well and incubated for 15 minutes with gentle shaking. Plates were read (Time Resolved Fluorescence (“TRF”)) on SPECTRAMAX® (Molecular Devices, Sunnyvale, Calif.) plate reader.
FIGS. 14A-14BB are representative of the inhibition curves obtained by this method (results are shown for Ab1, Ab2, Ab3, Ab4, Ab5, Ab6, Ab7, Ab8, Ab9, Ab10, Ab11, Ab12, Ab13, Ab14, Ab15, Ab16, Ab17, Ab18, Ab19, Ab1.H, Ab10.H, Ab22, Ab23, Ab3.H, Ab4.H, Ab5.H, Ab9.H, and Ab12.H, respectively) wherein the PAC1-R expressing cells were PC-12 cells.

human PACAP38 [2] = target: T1, human PACAP38; assay: cell-based or functional assay
human PACAP27 [3] = target: T2, human PACAP27; assay: cell-based or functional assay
human PACAP38 [4] = target: T1, human PACAP38; assay: cell-based or functional assay
human PACAP38 [5] = target: T1, human PACAP38; assay: HTRF binding, biotin-PACAP38
Method: In parallel, 10 μl of an antibody dilution series (highest final concentration of 100 nM) were incubated with 10 μl of N-terminal or C-terminal biotinylated PACAP38 (35 nM final) alone, or in combination with either PACAP27 (350 nM final) or VIP (350 nM final), i.e., 10× PACAP27 or 10×VIP, respectively, in a HTRF plate. 20 μl of Eu³⁺ cryptate labeled anti-hu Fc donor and 20 μl of d2-labeled streptavidin acceptor were added to each well and incubated for 1 hour at room temperature. Fluorescence was measured at 620 and 665 nm with a delay of 300 μsec.
EC₅₀ values, i.e. the concentration of an antibody that yields a response halfway between the baseline and the maximum value within a specified time period, were computed for each antibody based upon their binding curves and are shown in Table 1 below. […] A humanized form of antibody Ab1 was produced and is identified by an appended “.H”, i.e., Ab1.H, and it also bound PACAP38 with high affinity.

human PACAP38 [6] = target: T1, human PACAP38; assay: cell-based or functional assay
human PACAP27 [7] = target: T2, human PACAP27; assay: SPR, Ab immobilised
Method: [The procedure below names another target; the source says it served here with some conditions changed.] (§1) Binding affinities of monoclonal antibodies for human PACAP were estimated using SPR on the PROTEON™ XPR36 (Bio-Rad, Hercules, Calif.). Antibody was immobilized to the surface of general amine coupling (“GLC” or “GLM”) Chips (Bio-Rad, Hercules, Calif.). A dilution series of human PACAP38 (SEQ ID NO: 1241) prepared in 1×PBST Buffer (4.3 mM Na Phosphate, 1.4 mM K Phosphate, 135 mM NaCl, 2.7 mM KCl 0.05% Polysorbate-20) purchased from Teknova (Cat# P1192, Teknova, Hollister, Calif.) and supplemented with 0.25 M arginine (from J.T. BAKER®), 0.2 mg/ml BSA (Jackson Immuno Research Labs, West Grove, Pa.), and 0.005% sodium azide (VWR International, Radnor, Pa.) with the pH adjusted to 7 was used to query the antibodies. Antigen (ranging from 1.23 nM to 100 nM) was typically run sequentially with association times of 2-4 minutes and dissociation times of 3-120 minutes grouped with the PROTEON™ Manager Software (v3.1.0.6 (Bio-Rad, Hercules, Calif.)) and fitted using a 1:1 Langmuir binding model. Surfaces were regenerated between analyte queries using 0.85% Phosphoric Acid.

human PACAP38 [8] = target: T1, human PACAP38; assay: SPR, Ab immobilised
Method: as §1

human VIP = target: T3, human VIP; assay: SPR, Ab immobilised
Method: [The procedure below names another target; the source says it served here with some conditions changed.] as §1

Binder	IC50 (human PACAP38 [1]) [nM]	IC50, 5 nM PACAP38-induced human VPAC1-R mediated cAMP increase (human PACAP38 [2]) [nM]	IC50, 0.1 nM PACAP27-induced PAC1-R mediated cAMP increase (human PACAP27 [3]) [nM]	IC50, 0.1 nM PACAP38-induced PAC1-R mediated cAMP increase (human PACAP38 [4]) [nM]	EC50 (human PACAP38 [5]) [nM]	IC50, 1 nM PACAP38-induced human VPAC2-R mediated cAMP increase (human PACAP38 [6]) [nM]	Kd (human PACAP27 [7]) [nM]	koff (human PACAP27 [7]) [s⁻¹]	kon (human PACAP27 [7]) [M⁻¹ s⁻¹]	Kd (human PACAP38 [8]) [nM]	koff (human PACAP38 [8]) [s⁻¹]	kon (human PACAP38 [8]) [M⁻¹ s⁻¹]	Kd (human VIP) [nM]	koff (human VIP) [s⁻¹]	kon (human VIP) [M⁻¹ s⁻¹]
B1	36.7	3.71	0.155	0.162	0.62	22.9	0.17	7.8e-05	470000	0.05	2.7e-05	530000	820	0.13	160000
B2	162	0.827	0.0874	0.101	0.43	0.954	0.31	0.00013	420000	0.093	2.5e-05	270000	1000	0.28	280000
B3	16.3	0.721	0.353	0.327	0.6	0.239	0.096	2.4e-05	250000	≤ 0.041	≤ 1e-05	240000	7200	0.86	120000
B4	28.6	0.943	0.0769	0.34	0.66	0.218	0.51	0.0002	390000	0.22	7.2e-05	330000	120	0.021	170000
B5	27.3	3.53	0.192	0.212	0.68	1.15	0.035	2.9e-05	820000	≤ 0.011	≤ 1e-05	910000	260	0.096	360000
B6	33.1	0.78	0.0776	0.0977	0.46	0.205	≤ 0.027	≤ 1e-05	370000	≤ 0.02	≤ 1e-05	500000	55	0.017	310000
B7	30.6	0.911	0.0916	0.118	0.48	0.285	≤ 0.023	≤ 1e-05	440000	≤ 0.023	≤ 1e-05	430000	400	0.12	310000
